{
  "source": "paper PMC6798120",
  "experiment_in_all_cases": "flow cytometry on cells",
  "key": {"[1]": {"molecular_target": "MHV-A59 S protein Y15A/L160A (mouse hepatitis virus A59)"}, "[2]": {"molecular_target": "MHV-A59 S protein I22A (mouse hepatitis virus A59)"}, "[3]": {"molecular_target": "MHV-A59 S protein R20A (mouse hepatitis virus A59)"}},
  "data": [
    {"substance": "soluble receptor mCEACAM1a[1,4]", "values": [
      {"measurement": "reduction of receptor binding against WT", "setting": "[1]", "result": "> 65", "unit": "%"},
      {"measurement": "reduction of receptor binding against WT", "setting": "[2]", "result": 83, "unit": "%"},
      {"measurement": "reduction of receptor binding against WT", "setting": "[3]", "result": 61, "unit": "%"}
    ]}
  ]
}
